# Reference: patent US20240026344A1
# Biological target: AAV8 capsids (adeno-associated virus 8 (AAV8))
# Experiment: BLI (ForteBio), control ligand on sensor, AAV8 capsids 5x10^11 particles/mL, response after 4000 s
substance,measurement,value
Non-binding ligand (control) (designed binder),Response,0.03
